T1: FoxP3 RBR-FKH;NFAT1 (Mus musculus;Mus musculus, UniProt Q99JB6;Q60591 284-423;394-680, |)
T1 sequence 1: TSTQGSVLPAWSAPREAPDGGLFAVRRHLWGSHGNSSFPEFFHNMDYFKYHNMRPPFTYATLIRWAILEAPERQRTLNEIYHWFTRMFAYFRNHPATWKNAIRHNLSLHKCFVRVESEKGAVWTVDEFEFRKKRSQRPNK
T1 sequence 2: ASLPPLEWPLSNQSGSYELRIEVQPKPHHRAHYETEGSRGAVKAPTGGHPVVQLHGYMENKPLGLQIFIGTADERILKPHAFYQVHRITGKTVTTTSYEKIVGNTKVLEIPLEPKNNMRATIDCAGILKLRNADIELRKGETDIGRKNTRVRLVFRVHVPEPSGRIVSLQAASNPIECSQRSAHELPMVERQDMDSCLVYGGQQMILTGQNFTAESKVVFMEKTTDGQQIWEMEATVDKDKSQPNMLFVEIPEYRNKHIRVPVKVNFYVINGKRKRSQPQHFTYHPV

T2: FoxP1 RBR-FKH;NFAT1 (Mus musculus;Mus musculus, UniProt P58462;Q60591 427-579;394-680, |)
T2 sequence 1: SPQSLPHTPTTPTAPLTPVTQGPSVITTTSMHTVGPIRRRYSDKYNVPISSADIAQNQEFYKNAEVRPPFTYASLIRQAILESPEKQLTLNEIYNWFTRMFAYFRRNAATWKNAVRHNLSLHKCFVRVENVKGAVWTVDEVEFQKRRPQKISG
T2 sequence 2: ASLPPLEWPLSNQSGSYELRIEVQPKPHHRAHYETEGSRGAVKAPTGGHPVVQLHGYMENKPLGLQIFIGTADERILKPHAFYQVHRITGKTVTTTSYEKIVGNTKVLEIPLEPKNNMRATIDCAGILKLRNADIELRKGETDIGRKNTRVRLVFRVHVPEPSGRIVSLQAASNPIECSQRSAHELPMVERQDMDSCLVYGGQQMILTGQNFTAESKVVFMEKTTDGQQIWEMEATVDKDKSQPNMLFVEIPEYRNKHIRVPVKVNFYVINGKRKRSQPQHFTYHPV


Experiments:
Details in all cases: protein: recombinant;recombinant; tags: His6-NusA removed by HRV3C;His6-NusA removed by HRV3C; copies: 1;1
FoxP3 RBR-FKH;NFAT1 [1] = biological target: T1, FoxP3 RBR-FKH;NFAT1; assay: EMSA; NFAT 0.4 uM; FoxP3 monomer; EMSA: 20 mM HEPES pH 7.5, 150 mM NaCl, 1.5 mM MgCl2, 2 mM DTT, 4 C, 0.2 uM DNA; pull-down: 20 mM Tris-HCl pH 7.5, 100 mM NaCl, 1.5 mM MgCl2, RT, 0.4 uM protein, 0.1 uM DNA
FoxP1 RBR-FKH;NFAT1 = biological target: T2, FoxP1 RBR-FKH;NFAT1; assay: EMSA; NFAT 0.4 uM; FoxP1 monomer; EMSA: 20 mM HEPES pH 7.5, 150 mM NaCl, 1.5 mM MgCl2, 2 mM DTT, 4 C, 0.2 uM DNA; pull-down: 20 mM Tris-HCl pH 7.5, 100 mM NaCl, 1.5 mM MgCl2, RT, 0.4 uM protein, 0.1 uM DNA
FoxP3 RBR-FKH;NFAT1 [2] = biological target: T1, FoxP3 RBR-FKH;NFAT1; assay: EMSA; NFAT 0.4 uM; FoxP3 dimer; EMSA: 20 mM HEPES pH 7.5, 150 mM NaCl, 1.5 mM MgCl2, 2 mM DTT, 4 C, 0.2 uM DNA; pull-down: 20 mM Tris-HCl pH 7.5, 100 mM NaCl, 1.5 mM MgCl2, RT, 0.4 uM protein, 0.1 uM DNA

Binder	binding result (FoxP3 RBR-FKH;NFAT1 [1])	binding result (FoxP1 RBR-FKH;NFAT1)	binding result (FoxP3 RBR-FKH;NFAT1 [2])
sFKHM (DNA2) (dsDNA) DNA 1: TAGGAAAATTTGCCGCGTCGAGTAAACATC DNA 2: GATGTTTACTCGACGCGGCAAATTTTCCTA	binds	binds	
IR-FKHM (DNA1) (dsDNA) DNA 1: TAGGAAAATTTGTTTACTCGAGTAAACATC DNA 2: GATGTTTACTCGAGTAAACAAATTTTCCTA		binds	binds

— publication doi:10.1101/2025.09.16.676304, “FoxP3 forms a head-to-head dimer in vivo and stabilizes its multimerization on adjacent microsatellites”
